# Laboratory results: IntAct's records for PubMed 21771788
# B1: Mitogen-activated protein kinase kinase kinase 5 (Homo sapiens), Q99683 (parent)
# chain: MSTEADEGITFSVPPFAPSGFCTIPEGGICRRGGAAAVGEGEEHQLPPPPPGSFWNVESAAAPGIGCPAATSSSSATRGRGSSVGGGSRRTTVAYVINEASQGQLVVAESEALQSLREACETVGATLETLHFGKLDFGETTVLDRFYNADIAVVEMSDAFRQPSLFYHLGVRESFSMANNIILYCDTNSDSLQSLKEIICQKNTMCTGNYTFVPYMITPHNKVYCCDSSFMKGLTELMQPNFELLLGPICLPLVDRFIQLLKVAQASSSQYFRESILNDIRKARNLYTGKELAAELARIRQRVDNIEVLTADIVINLLLSYRDIQDYDSIVKLVETLEKLPTFDLASHHHVKFHYAFALNRRNLPGDRAKALDIMIPMVQSEGQVASDMYCLVGRIYKDMFLDSNFTDTESRDHGASWFKKAFESEPTLQSGINYAVLLLAAGHQFESSFELRKVGVKLSSLLGKKGNLEKLQSYWEVGFFLGASVLANDHMRVIQASEKLFKLKTPAWYLKSIVETILIYKHFVKLTTEQPVAKQELVDFWMDFLVEATKTDVTVVRFPVLILEPTKIYQPSYLSINNEVEEKTISIWHVLPDDKKGIHEWNFSASSVRGVSISKFEERCCFLYVLHNSDDFQIYFCTELHCKKFFEMVNTITEEKGRSTEEGDCESDLLEYDYEYDENGDRVVLGKGTYGIVYAGRDLSNQVRIAIKEIPERDSRYSQPLHEEIALHKHLKHKNIVQYLGSFSENGFIKIFMEQVPGGSLSALLRSKWGPLKDNEQTIGFYTKQILEGLKYLHDNQIVHRDIKGDNVLINTYSGVLKISDFGTSKRLAGINPCTETFTGTLQYMAPEIIDKGPRGYGKAADIWSLGCTIIEMATGKPPFYELGEPQAAMFKVGMFKVHPEIPESMSAEAKAFILKCFEPDPDKRACANDLLVDEFLKVSSKKKKTQPKLSALSAGSNEYLRSISLPVPVLVEDTSSSSEYGSVSPDTELKVDPFSFKTRAKSCGERDVKGIRTLFLGIPDENFEDHSAPPSPEEKDSGFFMLRKDSERRATLHRILTEDQDKIVRNLMESLAQGAEEPKLKWEHITTLIASLREFVRSTDRKIIATTLSKLKLELDFDSHGISQVQVVLFGFQDAVNKVLRNHNIKPHWMFALDSIIRKAVQTAITILVPELRPHFSLASESDTADQEDLDVEDDHEEQPSNQTVRRPQAVIEDAVATSGVSTLSSTVSHDSQSAHRSLNVQLGRMKIETNRLLEELVRKEKELQALLHRAIEEKDQEIKHLKLKSQPIEIPELPVFHLNSSGTNTEDSELTDWLRVNGADEDTISRFLAEDYTLLDVLYYVTRDDLKCLRLRGGMLCTLWKAIIDFRNKQT
# partner: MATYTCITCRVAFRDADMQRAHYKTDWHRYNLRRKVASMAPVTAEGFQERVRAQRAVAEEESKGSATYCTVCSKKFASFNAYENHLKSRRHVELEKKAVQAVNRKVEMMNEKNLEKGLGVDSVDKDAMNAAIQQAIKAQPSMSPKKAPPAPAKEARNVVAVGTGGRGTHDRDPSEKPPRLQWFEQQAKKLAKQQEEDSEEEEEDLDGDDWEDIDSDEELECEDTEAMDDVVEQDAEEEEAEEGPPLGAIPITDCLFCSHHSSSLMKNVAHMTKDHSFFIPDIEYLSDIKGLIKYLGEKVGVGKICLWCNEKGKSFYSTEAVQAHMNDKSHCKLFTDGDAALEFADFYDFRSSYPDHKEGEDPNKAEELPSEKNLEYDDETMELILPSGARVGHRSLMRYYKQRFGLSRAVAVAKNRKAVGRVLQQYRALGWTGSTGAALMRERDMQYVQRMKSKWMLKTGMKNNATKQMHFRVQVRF
# B2: Cytoplasmic 60S subunit biogenesis factor ZNF622 (Homo sapiens), Q969S3 (parent)
# chain: B1 partner
# Variants of: B1
# Settings: with zn622_human ZNF622, Q969S3
row,Variant,effect of a mutation on the interaction
1,C1360S,decreasing interaction
2,C1351S,decreasing interaction
3,C1351S;C1360S,disrupting interaction

# Variants of: B1
# Settings: with zn622_human ZNF622, Q969S3
# Remark: another data set of the same source
row,Variant,effect of a mutation on the interaction
1,C1351S;C1360S,disrupting interaction

# Variants of: B2
# Settings: with m3k5_human MAP3K5, Q99683
row,Variant,effect of a mutation on the interaction
1,MATYTCITCRVAFRDADMQRAHYKTDWHRYNLRRKVASMAPVTAEGFQERVRAQRAVAEEESKGSATYCTVCSKKFASFNAYENHLKSRRHVELEKKAVQAVNRKVEMMNEKNLEKGLGVDSVDKDAMNAAIQQAIKAQPSMSPKKAPPAPAKEARNVVAVGTGGRGTHDRDPSEKPPRLQWFEQQAKKLAKQQEEDSEEEEEDLDGDDWEDIDSDEELECEDTEAMDDVVEQDAEEEEAEEGPPLGAIPITDCLFCSHHSSSLMKNVAHMTKDHSFFIPDIEYLSDIKGLIKYLGEKVGVGKICLWSNEKGKSFYSTEAVQAHMNDKSHCKLFTDGDAALEFADFYDFRSSYPDHKEGEDPNKAEELPSEKNLEYDDETMELILPSGARVGHRSLMRYYKQRFGLSRAVAVAKNRKAVGRVLQQYRALGWTGSTGAALMRERDMQYVQRMKSKWMLKTGMKNNATKQMHFRVQVRF [C308S],decreasing interaction
2,MATYTCITCRVAFRDADMQRAHYKTDWHRYNLRRKVASMAPVTAEGFQERVRAQRAVAEEESKGSATYCTVCSKKFASFNAYENHLKSRRHVELEKKAVQAVNRKVEMMNEKNLEKGLGVDSVDKDAMNAAIQQAIKAQPSMSPKKAPPAPAKEARNVVAVGTGGRGTHDRDPSEKPPRLQWFEQQAKKLAKQQEEDSEEEEEDLDGDDWEDIDSDEELECEDTEAMDDVVEQDAEEEEAEEGPPLGAIPITDCLFCSHHSSSLMKNVAHMTKDHSFFIPDIEYLSDIKGLIKYLGEKVGVGKISLWSNEKGKSFYSTEAVQAHMNDKSHCKLFTDGDAALEFADFYDFRSSYPDHKEGEDPNKAEELPSEKNLEYDDETMELILPSGARVGHRSLMRYYKQRFGLSRAVAVAKNRKAVGRVLQQYRALGWTGSTGAALMRERDMQYVQRMKSKWMLKTGMKNNATKQMHFRVQVRF [C305S;C308S],disrupting interaction
3,MATYTCITCRVAFRDADMQRAHYKTDWHRYNLRRKVASMAPVTAEGFQERVRAQRAVAEEESKGSATYCTVCSKKFASFNAYENHLKSRRHVELEKKAVQAVNRKVEMMNEKNLEKGLGVDSVDKDAMNAAIQQAIKAQPSMSPKKAPPAPAKEARNVVAVGTGGRGTHDRDPSEKPPRLQWFEQQAKKLAKQQEEDSEEEEEDLDGDDWEDIDSDEELECEDTEAMDDVVEQDAEEEEAEEGPPLGAIPITDCLFCSHHSSSLMKNVAHMTKDHSFFIPDIEYLSDIKGLIKYLGEKVGVGKISLWCNEKGKSFYSTEAVQAHMNDKSHCKLFTDGDAALEFADFYDFRSSYPDHKEGEDPNKAEELPSEKNLEYDDETMELILPSGARVGHRSLMRYYKQRFGLSRAVAVAKNRKAVGRVLQQYRALGWTGSTGAALMRERDMQYVQRMKSKWMLKTGMKNNATKQMHFRVQVRF [C305S],decreasing interaction
